Source: the nanobody polyreactivity screen of Harvey et al. (2022)

Assay: yeast display, Sf9 membrane polyspecificity reagent, FACS + sequencing; frameworks hold sequencing errors
In short: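 Galactose-induced (36–48 hours) yeast carrying a synthetic nanobody display library were exposed to 10% biotinylated, detergent-solubilized Sf9 membrane reagent at 4 °C for 1 hour. FACS followed streptavidin microbead enrichment, using low and high (top ~1%) gates for expression (anti-HA) and reagent binding (streptavidin). Colony PCR, MiSeq 2 × 250 sequencing and CDR-length filtering followed. Labels for polyreactivity reflect the gate of origin.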

Sequence | polyreactivity (PSR sort gate)
QVQLVESGGGLVQAGGSLRISCAASGRIFLRNDMGWYRQAPGKERELVAGISSDGSTYYADSVKGRFTISRDNAKNTVYLQMNSLKPEDTAVYYCAAERWGNPTDYQFWRPYDYWGQGTQVTVSS | low polyreactivity
QVQLVESGGGLVQAGGSLRISCAASGRIFQHYAMGWYRQAPGKERELVAAISWRGGSTYYADSVKGRFTISRDNAKNTVFLLMNSLKPEDTAVYYCAAGYRGRIPGFDYWGQGTQVTVSS | high polyreactivity
QVQLVESGGGLVQAGGSLRISCAASGRIFSYNAMGWYRQAPGKERELVAAITTGGSTYYADSVKGRFTISRDNAKNTVYLQMNSLKPEDTAVYYSIKLGYYYDRRYDYWGQGTQVNVSS | high polyreactivity
QVQLVESGGGLVQAGGSLRISCAASGRTFAFYAMGRYRQAPGKERELVACISSSGDRTYYADSVKGRFTISRDNAKNTVYLQMNSLKPEDTAVYYCAARWRYTYYYWGQGTQVTVSS | high polyreactivity
QVQLVESGGGLVQAGGSLRISCAASGRTFPVNAMGWYRQAPGKERELVAAITWSGDSTYYADSVKGRFTISCDNAKNTVYLQMNSLKPEDTAVYYCAAAYRYGTLYYYWGQGTQVTVSS | low polyreactivity
QVQLVESGGGLVQAGGSLRISCAASGRTFPWYAMGWYRPAPGKERELVADITWSGGSTYYADSVKGRFTISRDNAKNTVYLQMNSLKPEDTAVYYCATRVLFWYRKYPGRPLTKYDYWGQGTQVTVSS | high polyreactivity
QVQLVESGGGLVQAGGSLRISCAASGRTFRFYVMGWYRKAPGKERELVAAISRGGGSTYYADSVKGRFTISRDNAKNTVYLQMNSLKPEDTAVYYCNAVTSGKKYVADYNYWGQGTQVTVSS | high polyreactivity
QVQLVESGGGLVQAGGSLRISCAASGRTFRTYAMGWYRQAPGKERELVAAISYSDGSTYYADSVKGRFTISRDNAKNTVYLQMNSLKPEDTAVYYCAIEYEDPYYIRYQVGYDFDYWGQGTQVTVSS | low polyreactivity
QVQLVESGGGLVQAGGSLRISCAASGRTFRWYAMGWYRQAPGKERELVAAISWNGGSTYYADSVKGRFTISRDNAKNTVYLQMNSLKPEDTAVYYCAVKAGPSRPYYSWGQGTQVTVSS | high polyreactivity
QVQLVESGGGLVQAGGSLRISCAASGRTFYPYAMGWYRQAPGKEREFVAAITLTGDSTYYADSVKGRFTISRDNAKNTVYLQMNSLKPEDTAVYYCNAGVGARESDYWGQGTQLTVSS | low polyreactivity
QVQLVESGGGLVQAGGSLRISCAASGRTFYWYAMGWYRQAPGKERELVAAISAGGGRTYCADSVKGRFTISRDNAKNTVYLQMNSLKPEDTAVYYCAADFQRGAKYTYDFWGQGTQVTVSS | high polyreactivity
QVQLVESGGGLVQAGGSLRISCAASGSICNINAMGWYRQAPGKERELVAPISQSDGSTYYADSVKGRFTISRDNAKNTVYLQMNSLKPEDTAVYYCSADAYVLFYGDWYEFDYWGQGTQVTVSS | high polyreactivity
QVQLVESGGGLVQAGGSLRISCAASGSIFAWNAMGWYRQAPGKERELVAAISRSGGRTYYADSVKGRFTISRDNAKNTVYLQMNSLKPEDTAVYYCNAYGLRWASRLGYDYWGQGTQVTVSS | high polyreactivity
QVQLVESGGGLVQAGGSLRISCAASGSIFEQYAMAWYRQAPGKERELVAAISKRGTSTYYAVSVKGRFTISRDNAKNTVYLQMNCLKPEDTAVYYCAATNRWYYRDAAAVYAFGYWGQGTQVTVSS | high polyreactivity
QVQLVESGGGLVQAGGSLRISCAASGSIFGVYAMGWYRQAPGKERELVAAIRSGGRTYYADSVKGRFTISRDNAKNTVYLQMNSLKPEDTAVYYCNAAFSSRVGRVQFYDYDYWGQGTQVTVSW | high polyreactivity
QVQLVESGGGLVQAGGSLRISCAASGSIFLSNMGWYRQAPGNERELVAAITIGGSTDYADSVKGRFTISRDNAKNTVYLQMNSLKPEDTAVYYCNADNPYSDGADSLGNYWGQGTQVTVSS | low polyreactivity
QVQLVESGGGLVQAGGSLRISCAASGSIFNIYAMGWSRQAPGKERELVATITGIADSTYYADSVKGRFTISRDNAKNTVNFQMNSLKPEDTAVYYCAARRTRVTGRYSVYAFDYWGQGTQVTVSS | low polyreactivity
QVQLVESGGGLVQAGGSLRISCAASGSIFRSNAMGWYRQAPGKEREMVAAISSSGGSTYYADSVKGRFTISRDNAKNTVYFQMNSLKPEDTAVYYCAAEVLSSDLFRPDSIVDYWGQGTQVNVSS | low polyreactivity
QVQLVESGGGLVQAGGSLRISCAASGSIFYYYDMGWYRQAPGKERELVASISRGGRTYYADSVKGRFTISRDNAMNTVYLQMNSLKPEDTAVYYCAAGYYIRYYGIMDYWGQGTQVTVSS | high polyreactivity
QVQLVESGGGLVQAGGSLRISCAASGSILVFYAMGWYRQAPGKESELVATITGSVGRTSYADSVKGRFTISRDNAKNTVYLQMNSLIPEDTAVYYCAADADTDVFYILQEYDYWGQGTQVTVSS | low polyreactivity
QVQLVESGGGLVQAGGSLRISCAASGSNFSYYAMGWYRQAPGKEREFVAAISWSGGSTYYADSVKGRFTISRDNAKNTVYLQMNSLKPEDTAVYYCAAELSLSWLVPEVPYYYWGQGTQVTGSS | low polyreactivity
QVQLVESGGGLVQAGGSLRISCAASGSTFANYSMGWYRQAPGKERELVAVISVRGGSTYYADSVKGRFTISRDNAKNTVYLQMNSLKPEDTAVYYCAADASGPRRYDSWGQGTQVTVSS | high polyreactivity
QVQLVESGGGLVQAGGSLRISCAASGSTFDDNAMGWYRQAPGKERELVASITYRGGSTYYADSVKGRFTISRDNAKNTVYLQMNSLKPEDTAVYYCAKGHYFKYDYWGQGTQVTVSS | low polyreactivity
QVQLVESGGGLVQAGGSLRISCAASGSTFDIYAMGWYRQAPGKERELVAAISNSGDTYYADSVKGRFTISRDNAKNTVYLQMNSLKPEDTAVYYCNADFHDWFDYWGQGTQVTVSS | high polyreactivity
QVQLVESGGGLVQAGGSLRISCAASGSTFGPYAMGWYRPAPGKERELVAAITKSGGRTYYADSVKGRFTISRDNAKNTVYLQMNSLKPEDTAVYYCAAYGSVGLEYWGQGTQVTVSS | high polyreactivity
QVQLVESGGGLVQAGGSLRISCAASGSTFQYYAMGWYRPAPGKETELVAAISDRDGGTFYADSVKGRFTISRDNAKNTVYLQMNSLKPEDTAVYYCANDAVGFRLDDNGYWGQGTQVTVSS | low polyreactivity
QVQLVESGGGLVQAGGSLRISCAASGSTFSNYAMGWYRQAPGKERELVAAINSGGRTKYADSVKGRFTISRDNAKNSVYLQMNSLKPEDTAVYYCAKRIENFSGSLAGRWYDYWGQGTQVTVSS | high polyreactivity
QVQLVESGGGLVQAGGSLRISCAASGSTFSSYAMGWYRQAPGKERELVAAISRSGDRTYYADSVKGRFTISRDNAEKTVYFQMNSLKPEDTAFYYCNTVYINRVTNLYDYWGQGTQVTVSS | high polyreactivity
QVQLVESGGGLVQAGGSLRISCAASGSTFTTYSMGWYRQAPGKEREKVAAIRFSGGTTYYADSVKGRFTISRDNAKNTVYLQMNSLKPEDTAVYYCAAVYISRIFFGRARGDYWGQGTQVTVSS | low polyreactivity
QVQLVESGGGLVQAGGSLRISCAASGSTFWTYAMGWYRQAPGKERELVAAITTGGNTYYADSVKGRFTISRDNAKNTVYLQMNSLKPEDTAVYSCAAASWTYYYSQYGAVFREYDYWGQGTEVTVSS | low polyreactivity
